Laboratory results from paper PMC12694930, “An allantoin-inducible glyoxylate utilization pathway in Pseudomonas aeruginosa” (Microbiology, 2025).

How the values were obtained:
Gcl [1] = target: T1, Gcl (Pseudomonas aeruginosa, UniProt Q9I3L0); assay: GlxR-coupled NADH oxidation with added FAD; yellow protein ([…] nm); type: biochemical; details: 100 µM FAD roughly doubled activity; 37 °C
T1 construct: full-length ORF in pET-19m, N-terminal His6 tag cut with TEV protease, expressed in E. coli Rosetta, Ni-NTA
T1 sequence (Q9I3L0 1-591): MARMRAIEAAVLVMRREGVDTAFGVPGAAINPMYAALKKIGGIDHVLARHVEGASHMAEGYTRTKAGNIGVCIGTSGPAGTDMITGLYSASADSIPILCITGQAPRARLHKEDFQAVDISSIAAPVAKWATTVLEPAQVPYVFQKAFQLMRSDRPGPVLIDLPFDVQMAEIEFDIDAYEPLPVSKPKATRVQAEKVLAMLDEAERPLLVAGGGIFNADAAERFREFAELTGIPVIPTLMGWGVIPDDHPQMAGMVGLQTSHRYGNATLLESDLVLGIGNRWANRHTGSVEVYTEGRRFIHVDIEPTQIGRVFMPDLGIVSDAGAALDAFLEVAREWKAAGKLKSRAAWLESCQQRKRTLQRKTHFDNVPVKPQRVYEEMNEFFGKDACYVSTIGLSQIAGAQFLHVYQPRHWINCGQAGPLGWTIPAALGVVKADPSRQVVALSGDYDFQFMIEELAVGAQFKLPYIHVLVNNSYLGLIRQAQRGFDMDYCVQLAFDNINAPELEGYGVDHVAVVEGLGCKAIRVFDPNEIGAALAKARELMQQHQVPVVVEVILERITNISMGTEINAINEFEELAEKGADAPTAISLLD

Hyi = target: T2, Hyi (Pseudomonas aeruginosa, UniProt Q9I3L1); assay: 1H-NMR, disappearance of hydroxypyruvate peaks; type: biochemical; details: 50 mM sodium phosphate in D2O, 1 mM MgCl2, pD 7.0; 37 °C; likely isomerization with H/D exchange, product peak not seen
T2 construct: gene PA1501; full-length ORF in pET-19m, N-terminal His6 tag (cleavage clearly told only for Gcl), expressed in E. coli Rosetta, Ni-NTA; dimer in solution
T2 sequence (Q9I3L1 1-260): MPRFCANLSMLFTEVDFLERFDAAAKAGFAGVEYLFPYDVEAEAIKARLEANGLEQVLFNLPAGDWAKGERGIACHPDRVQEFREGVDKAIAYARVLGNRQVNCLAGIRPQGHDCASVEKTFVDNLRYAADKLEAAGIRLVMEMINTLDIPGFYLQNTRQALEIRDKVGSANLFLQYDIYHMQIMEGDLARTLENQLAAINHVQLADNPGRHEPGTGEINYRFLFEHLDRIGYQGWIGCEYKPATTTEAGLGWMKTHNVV

[2] = target: Hyi (PA1501), putative hydroxypyruvate isomerase from Pseudomonas aeruginosa (P. aeruginosa); assay: AUC; analytical ultracentrifugation, sedimentation velocity (AUC-SV), of each purified protein alone
Gcl [3] = target: T1, Gcl; assay: 1H-NMR, decrease of hydrated glyoxylate peak; type: biochemical; details: 50 mM sodium phosphate in D2O, 1 mM MgCl2, pD 7.0; 37 °C; 22 h; no Hyi
purified protein [4] = substrate: O=C(O)C(=O)CO; assay: purified protein; type: biochemical, Pseudomonas aeruginosa; details: 0.2 mM NADH, 20 mM MOPS, pH 7.5, 37 °C, h = 1.6 ± 0.2, some TSA may be present by tautomerization, no Hyi
purified protein [5] = substrate: O=CC(O)C(=O)O; assay: purified protein; type: biochemical, Pseudomonas aeruginosa; details: TSA made in situ by Gcl from 0-10 mM glyoxylate (concentration varied was glyoxylate, so apparent), 0.2 mM NADH, 20 mM MOPS, 37 °C, no Hyi
[6] = target: the molecule itself; assay: AUC; analytical ultracentrifugation, sedimentation velocity (AUC-SV), of each purified protein alone

Molecule: Cc1cc2nc3c(=O)[nH]c(=O)nc-3n(C[C@H](O)[C@H](O)[C@H](O)COP(=O)(O)OP(=O)(O)OC[C@H]3O[C@@H](n4cnc5c(N)ncnc54)[C@H](O)[C@@H]3O)c2cc1C [flavin adenine dinucleotide]
- GlxR-coupled NADH oxidation with added FAD; yellow protein (445 nm) (Gcl [1]): FAD supplementation roughly doubled the enzyme activity

Molecule: O=C(O)C(=O)CO [hydroxypyruvate]
- 1H-NMR, disappearance of hydroxypyruvate peaks (Hyi): In the presence of Hyi, both hydroxypyruvate peaks had lessened in intensity

Molecule: Hyi (PA1501), putative hydroxypyruvate isomerase from Pseudomonas aeruginosa (enzyme)
- stoichiometry N [2]: 2

Molecule: O=CC(=O)O [glyoxylate]
- 1H-NMR, decrease of hydrated glyoxylate peak (Gcl [3]): In the presence of Gcl, this hydrated glyoxylate peak slowly diminished in intensity

B1: GlxR (PA1500), tartronate semialdehyde (TSA) reductase from Pseudomonas aeruginosa (enzyme, P. aeruginosa, UniProt Q9I3L2 1-296, looked up)
chain: MAKIGFIGTGIMGKPMAQNLQKAGHSLFLSTHHDAAPADLLEAGAIALANPKEVAQEAEFIIVMVPDTPQVEDVLFRKDGIAEGAGPNKVVIDMSSISPTATKGFAEKIKATGAQYLDAPVSGGEVGAKAATLSIMVGGCPNTFERALPLFQAMGKNITRVGGNGDGQTAKVANQIIVALNIQAVAEALLFAARNGADPAKVREALMGGFASSRILEVHGERMVKGTFDPGFRISLHQKDLNLALAGARELNLNLPNTANAQQVFSTCAAIGGSNWDHSALIKGLEHMANFSIRDE
notes: GlxR, tartronate semialdehyde reductase, ORF PA1500 of P. aeruginosa strain PAO1; the ORF was tagged and over-expressed; The methods state TEV cleavage of the His6 tag 'For Gcl' but then speak of 'each of the over-expressed proteins'; whether the tag of GlxR was removed is not clear; For crystallisation the elution and dialysis buffers differed (PBS based); also called apo-GlxR; GlxRα; source: E. …
- K0.5 (purified protein [4]): 16.7 mM
- kcat (purified protein [4]): 33.5 s⁻¹
- Km (purified protein [5]): 800 µM
- kcat (purified protein [5]): 34.7 s⁻¹
- stoichiometry N [6]: 4
